Measured values reported in patent US7517949B2, “Livin-derived peptides, compositions and uses thereof” (Hadasit Medical Research Services & Development Ltd., priority 2003, dated 2009).
Entries after “also recorded” stand apart in the source; their conditions may differ. Residues, ends and D or L forms follow the SMILES beside them. *: point of attachment. Cbz = O=C(OCc1ccccc1)*; CH2F = FC*

Columns and labels:
[1] = test system: Livin cleavage in Jurkat cells; assay: Livin cleavage in Jurkat cells pre-incubated with caspase inhibitors (Western blot); format: cell-based, human; details: Jurkat cells pre-incubated with inhibitor prior to treatment
Description: FIG. […]
Whole cell lysates were prepared using lysis buffer (Tris-HCl 20 mM, EDTA 2 mM, β-2-Mercaptoethanol 6 mM, NP-40 1%, SDS 0.1%). Protease inhibitors included: PMSF 1 mM, Protease inhibitor cocktail (Sigma) diluted 1:10, and Complete inhibitor cocktail (Roche, Germany) diluted 1:25. About 0.25-1×10^6 cells were lysed in a total volume of 100 μl, incubated at 4° C. for 20 minutes with vigorous vortexing. Protein content was assessed by Bradford assay (Bio-Rad, Germany), according to the manufacturer's instructions. Samples were resolved on a 10% Bis-Tris pre-cast gel, following the manufacturer's instructions (Invitrogen, USA). After transferring the gel to a PVDF membrane (Millipore, Mass. USA), the membrane was exposed to the antibodies in blocking solution (PBS 1% Casein, 0.05% Tween 20) for 1 hour, followed by three 5-minute washes with PBS. The monoclonal antibody against Livin (clone:88C570) was purchased from Imgenex, and diluted 1:3000 in blocking solution. Survivin 6E4 monoclonal antibody was used according to the manufacturer's recommendation. […]
Cells were incubated with caspase inhibitors for 1-2 hour prior to treatment with the apoptotic stimuli. […] Caspase 9 activity was assessed using caspase-9 colorimetric substrate LEHD-pNA (Biovision, Calif., USA). […]

721.221 cells = assay: Apoptosis of stably transfected 721.221 cells after anti-CD95/Fas treatment (nuclear morphology, acridine orange); format: cell-based; details: 0.1 μg/ml anti-CD95/Fas antibody, 18 hours, compared with wild type 721.221 cells
Description: FIG. 6a: 721.221 cells stably expressing either Livin α or […], and wild type 721.221 cells, were treated with 0.1 μg/ml anti-CD95/Fas antibody for 18 hours. Nuclear morphology was visualized using acridine orange staining and used for determining apoptosis rate.
(§1) Transfection with the pIRES2-EGFP plasmid (QIAGEN, Germany) encoding p30-Livin α or p28-Livin β, and as positive controls, the full length wild type cDNA of either Livin α or β was done either by electroporation, in 721.221 cells [Mandelboim, O. et al. (1996) J. Exp. Med., 184: 913-922], or using PolyFect (QIAGEN), in human embryonic kidney 293T cells, according to manufacturers instructions. […] Thus, cells transfected with this plasmid may be monitored for transfection by the absence or presence of the GFP signal.
(§2) Nuclear morphology was visualized using acridin orange (Sigma) staining as described [Loo, D. T. et al. (1998) Methods Cell Biol., 57: 251-264]. […] The percentage of apoptotic to viable cells was counted by fluorescence microscopy and 500 cells were scored for each sample. […] Cells transfected with a GFP-containing plasmid were analyzed using Annexin-V-Cy5 and PI staining according to the manufacturer instructions (MBL, Japan). In stably transfected cultures with a rate of GFP-positive cells higher than 95%, all cells were analyzed for apoptosis. […]

293T cells = assay: Spontaneous apoptosis of transiently transfected 293T cells (Annexin V/PI flow cytometry of GFP-positive cells); format: cell-based, human; details: 24 hours post-transfection, in comparison to full-length proteins or empty vector
Description: FIG. 6c: 293T cells were transiently transfected with the indicated plasmids. 24 hours post-transfection, cells were harvested and analyzed by flow cytometry. Apoptosis of GFP-positive cells was analyzed by Annexin-V/PI stain.
as §1, §2

LB33 Mel A1 cells = assay: Cell death of transiently transfected LB33 Mel A1 cells (PI stain of GFP-positive cells); format: cell-based, human; details: data not shown; for induction of apoptosis by transient transfection: in comparison to full-length counterparts or control
Description: At the indicated times post transfection cells were analyzed for GFP percent as a marker of transfection, and the GFP-positive population was further analyzed for cell death using PI stain.

Jurkat cells [2] = assay: Protection of Livin-expressing cells from drug-induced apoptosis; format: cell-based, human
Description: Primary cultures of melanoma cells were tested for the expression of Livin, XIAP and Survivin. XIAP and Survivin were widely expressed in most of the melanoma samples tested. On the other hand, Livin was expressed at variable levels, in 10 out of the 27 melanoma samples.
To further explore the cleavage of each isoform, retroviral infection to establish a Jurkat T-cell Leukemia/Lymphoma cell line and an EBV-transformed B cell line 721.221, expressing high, stable levels of either Livin α or β were used. […] A panel of the three drugs etoposide, staurosporine, and anti-CD95/Fas ligand was thus used to induce apoptosis in the transfected Jurkat and 721.221 cells. Similar results were observed when cells were treated with anti-CD95/Fas antibody (data not shown). The correlation between the timing of the cleavage and apoptosis rate was further investigated.

Jurkat cells [3] = details: cited from earlier work

Molecule | cleavage of Livin [1] | rate of apoptosis following anti-CD95/Fas treatment (721.221 cells) | rate of spontaneous apoptosis (293T cells) | induction of apoptosis by transient transfection (LB33 Mel A1 cells) | also measured
CC[C@H](C)[C@H](NC(=O)[C@H](CCC(=O)O)NC(=O)[C@@H](NC(C)=O)C(C)C)C(=O)N[C@H](C=O)CC(=O)O [caspase 6 inhibitor] (Ac-VEID-aldehyde) | not | – | – | – | –
COC(=O)C[C@H](NC(=O)[C@H](C)NC(=O)[C@@H](NC(=O)OCc1ccccc1)C(C)C)C(=O)CF [zVAD-FMK] (Cbz-Val-Ala-Asp(OMe)-CH2F) | significantly diminished the cleavage of Livin | – | – | – | –
p30-Livin α: Livin α-derived peptide, cleavage product, C-terminal subunit of about 30 kDa with BIR and RING domains (protein, listed as Homo sapiens) GQILGQLRPLTEEEEEEGAGATLSRGPAFPGMGSEELRLASFYDWPLTAEVPPELLAAAGFFHTGHQDKVRCFFCYGGLQSWKRGDDPWTEHAKWFPSCQFLLRSKGRDFVHSVQETHSQLLGSWDPWEEPEDAAPVAPSVPASGYPELPTPRREVQSESAQEPGGVSPAEAQRAWWVLEPPGARDVEAQLRRLQEERTCKVCLDRAVSIVFVPCGHLVCAECAPGLQLCPICRAPVRSRVRTFLS | – | gained significant pro-apoptotic activity; also recorded: much higher rate of apoptosis | significantly higher rate of spontaneous apoptosis | sufficient to induce apoptosis | –
p28-Livin β: Livin β-derived peptide, cleavage product, C-terminal subunit of about 28 kDa with BIR and RING domains (protein, listed as Homo sapiens) GQILGQLRPLTEEEEEEGAGATLSRGPAFPGMGSEELRLASFYDWPLTAEVPPELLAAAGFFHTGHQDKVRCFFCYGGLQSWKRGDDPWTEHAKWFPSCQFLLRSKGRDFVHSVQETHSQLLGSWDPWEEPEDAAPVAPSVPASGYPELPTPRREVQSESAQEPGARDVEAQLRRLQEERTCKVCLDRAVSIVFVPCGHLVCAECAPGLQLCPICRAPVRSRVRTFLS | – | – | significantly higher rate of spontaneous apoptosis | sufficient to induce apoptosis | rate of apoptosis, p28-Livin β relative to p30-Livin α (LB33 Mel A1 cells; all time points tested): more potent pro-apoptotic agent than p30-Livin α; also recorded: much higher rate of apoptosis than p30-Livin α
Livin β: full-length Livin isoform β, IAP family member, about 37 kDa (protein, listed as Homo sapiens) MGPKDSAKCLHRGPQPSHWAAGDGPTQERCGPRSLGSPVLGLDTCRAWDHVDGQILGQLRPLTEEEEEEGAGATLSRGPAFPGMGSEELRLASFYDWPLTAEVPPELLAAAGFFHTGHQDKVRCFFCYGGLQSWKRGDDPWTEHAKWFPSCQFLLRSKGRDFVHSVQETHSQLLGSWDPWEEPEDAAPVAPSVPASGYPELPTPRREVQSESAQEPGARDVEAQLRRLQEERTCKVCLDRAVSIVFVPCGHLVCAECAPGLQLCPICRAPVRSRVRTFLS | – | – | – | – | protection against other chemotherapeutic agents (Jurkat cells [2]; Jurkat cells, Daunorubicin, Fludarabine and Cytosine arabinoside, unpublished data): protect Jurkat cells; inhibition of etoposide-induced apoptosis (Jurkat cells [3]; previously demonstrated by the inventors (Ashhab 2001)): inhibit etoposide-induced apoptosis; also recorded: can only block etoposide-induced apoptosis
Livin α: full-length Livin isoform α, IAP family member, about 39 kDa (protein, listed as Homo sapiens) MGPKDSAKCLHRGPQPSHWAAGDGPTQERCGPRSLGSPVLGLDTCRAWDHVDGQILGQLRPLTEEEEEEGAGATLSRGPAFPGMGSEELRLASFYDWPLTAEVPPELLAAAGFFHTGHQDKVRCFFCYGGLQSWKRGDDPWTEHAKWFPSCQFLLRSKGRDFVHSVQETHSQLLGSWDPWEEPEDAAPVAPSVPASGYPELPTPRREVQSESAQEPGGVSPAEAQRAWWVLEPPGARDVEAQLRRLQEERTCKVCLDRAVSIVFVPCGHLVCAECAPGLQLCPICRAPVRSRVRTFLS | – | lower rate of apoptosis | – | – | protection from staurosporine-induced apoptosis (Jurkat cells [2]): can protect from staurosporine-induced apoptosis; protection against anti-CD95/Fas antibody-induced apoptosis (Jurkat cells [3]; inventors' previous work (Ashhab 2001)): able to protect from apoptosis
